No end group written: not given here.
Assays:
Noxa BH3 (Homo sapiens) = Noxa BH3 (Homo sapiens) (UniProt Q13794); assay: ITC; details: cited from earlier work
CNP058 = CNP058 (Canarypox virus, UniProt Q6VZT9); assay: biochemical; assay type: binding
[1] = target: T1, Canarypox virus CNP058 lacking the C-terminal transmembrane domain (residues 1–143) (canarypox virus, UniProt Q6VZT9 1-143); assay: ITC; details: both partners purified
T1 sequence: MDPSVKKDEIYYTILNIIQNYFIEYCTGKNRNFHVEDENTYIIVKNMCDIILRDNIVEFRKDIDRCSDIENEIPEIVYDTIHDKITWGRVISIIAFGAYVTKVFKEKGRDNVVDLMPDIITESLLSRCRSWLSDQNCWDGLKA

Sequence of Noxa BH3 (Homo sapiens) (Q13794 18-43): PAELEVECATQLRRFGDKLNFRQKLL

FPV039 (from UniProt Q9J5G4)
Kd (Noxa BH3 (Homo sapiens)): 28 nM

PEVNEAIVRTIAAQLAEIGDQLDKQIKAKVVNDL [GG_Bid]
Kd (CNP058): 50 nM

B1: Homo sapiens Puma BH3 domain peptide (residues 130-155) (peptide)
peptide: EEQWAREIGAQLRRMADDLNAQYERR
Kd [1]: 2480 nM

B2: Homo sapiens Bax BH3 domain peptide (residues 50-77) (peptide)
peptide: VPQDASTKKLSECLKRIGDELDSNMELQ
Kd [1]: 326 nM

B3: Gallus gallus Bid BH3 domain peptide (residues 77-110) (peptide)
peptide: PEVNEAIVRTIAAQLAEIGDQLDKQIKAKVVNDL
Kd [1]: 50 nM

B4: Gallus gallus Noxa BH3 domain peptide (peptide)
peptide: ERDAVAECALELRRIGDKADLQQKVL
notes: Noxa, Gallus gallus, BH3 domain peptide; source: synthetic peptide (Mimotopes)
Kd [1]: 3280 nM

B5: Gallus gallus Bmf BH3 domain peptide (residues 135-160) (peptide)
peptide: EARTEVQIARKLQCIADQFHRLHIQR
Kd [1]: 294 nM

Source: PMC5691656 (Viruses, 2017)
